Twelve molecules from patent US20200181277A1 (Genmab, published 2020) can be followed below.

The term EC50 denotes the concentration that produces a half-maximal response. A low value points to higher potency in that assay.

In one test the target is human CD40 (human, UniProt P25942 21-277). Briefly: cell-based or functional assay.
Test [1] deals with T1, purified human C1q (human, UniProt P02745 23-245; P02746 28-253; P02747 29-245).
T1 construct: Purified C1q, Quidel Cat # A400; multimer of A, B and C chains
As to the kind of experiment: C1q binding ELISA: plate coated with 1 µg/mL antibody, purified C1q titrated 0.010-30 µg/mL; SD 0.8, n 3.
Protocol: (§1) A binding ELISA was performed to evaluate the effect of different substitutions on C1q binding. […] Plates were washed and blocked for 1 hour at RT with 200 μL/well 0.5×PBS supplemented with 0.025% Tween 20 and 0.1% gelatin while shaking. […] The reaction was stopped by the addition of 100 μL 2% oxalic acid. Absorbance was measured at 405 nm in a BioTek EL808 Microplate Reader (BioSPX). Log transformed data were analyzed by fitting sigmoidal dose-response curves with variable slope using GraphPad Prism software.

Test [2] has as its target T1, purified human C1q. As to the kind of experiment: C1q binding ELISA: plate coated with 1 µg/mL antibody, purified C1q titrated 0.010-30 µg/mL; SD 0.1, n 3.
Protocol: as §1
Test [3] deals with T1, purified human C1q. As to the kind of experiment: C1q binding ELISA (Example 6): plate coated with 1 µg/mL antibody, purified C1q titrated; SD 0.1, n 3.
Protocol: as §1
For test [4], the target named is T1, purified human C1q. As to the kind of experiment: C1q binding ELISA (Example 6): plate coated with 1 µg/mL antibody, purified C1q titrated; SD 3.9, n 3. For orientation: ELISA stands for enzyme-linked immunosorbent assay.
Protocol: as §1
For test [5], the target named is T1, purified human C1q. Briefly: C1q binding ELISA: plate coated with 1 µg/mL antibody, purified C1q titrated 0.010-30 µg/mL; SD 0.2, n 3.
Protocol: as §1
The target in another test is human 4-1BB (human, UniProt Q07011 24-255). As to the kind of experiment: cell-based or functional assay.
Chain of human 4-1BB (Q07011 24-255): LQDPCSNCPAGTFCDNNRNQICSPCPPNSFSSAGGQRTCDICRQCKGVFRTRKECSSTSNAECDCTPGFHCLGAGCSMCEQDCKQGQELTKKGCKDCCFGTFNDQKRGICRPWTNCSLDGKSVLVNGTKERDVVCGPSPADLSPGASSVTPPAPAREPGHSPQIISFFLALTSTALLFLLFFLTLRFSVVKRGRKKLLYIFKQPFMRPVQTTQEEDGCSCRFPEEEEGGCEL

Chain of human CD40 (P25942 21-277): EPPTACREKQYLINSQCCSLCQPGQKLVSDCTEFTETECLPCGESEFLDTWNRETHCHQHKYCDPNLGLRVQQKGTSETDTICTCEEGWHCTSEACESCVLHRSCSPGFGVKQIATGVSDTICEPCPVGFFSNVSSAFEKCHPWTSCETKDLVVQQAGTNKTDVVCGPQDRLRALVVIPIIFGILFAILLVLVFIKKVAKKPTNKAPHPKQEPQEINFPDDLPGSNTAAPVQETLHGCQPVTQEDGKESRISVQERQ

B1: IgG1-CD40-SGN40 (antibody)
heavy: not shown
VL: DIQMTQSPSSLSASVGDRVTITCRSSQSLVHSNGNTFLHWYQQKPGKAPKLLIYTVSNRFSGVPSRFSGSGSGTDFTLTISSLQPEDFATYFCSQTTHVPWTFGQGTKVEIK
For B1, in the test with human CD40, the “CD40 response, luciferase reporter cells, EC50” value (“CD40 response” below) stood at 3.36 µg/mL.

B2: IgG1-CD40-SGN40-K326W/E333S/E430G (antibody)
heavy: EVQLVESGGGLVQPGGSLRLSCAASGYSFTGYYIHWVRQAPGKGLEWVARVIPNAGGTSYNQKFKGRFTLSVDNSKNTAYLQMNSLRAEDTAVYYCAREGIYWWGQGTLVTVSSASTKGPSVFPLAPSSKSTSGGTAALGCLVKDYFPEPVTVSWNSGALTSGVHTFPAVLQSSGLYSLSSVVTVPSSSLGTQTYICNVNHKPSNTKVDKRVEPKSCDKTHTCPPCPAPELLGGPSVFLFPPKPKDTLMISRTPEVTCVVVDVSHEDPEVKFNWYVDGVEVHNAKTKPREEQYNSTYRVVSVLTVLHQDWLNGKEYKCKVSNWALPAPISKTISKAKGQPREPQVYTLPPSREEMTKNQVSLTCLVKGFYPSDIAVEWESNGQPENNYKTTPPVLDSDGSFFLYSKLTVDKSRWQQGNVFSCSVMHGALHNHYTQKSLSLSPGK
VL: DIQMTQSPSSLSASVGDRVTITCRSSQSLVHSNGNTFLHWYQQKPGKAPKLLIYTVSNRFSGVPSRFSGSGSGTDFTLTISSLQPEDFATYFCSQTTHVPWTFGQGTKVEIK
As to B2, the “CD40 response” value with human CD40 stood at 0.018 µg/mL.

B3: IgG1-CD40-SGN40-E430G (antibody)
heavy: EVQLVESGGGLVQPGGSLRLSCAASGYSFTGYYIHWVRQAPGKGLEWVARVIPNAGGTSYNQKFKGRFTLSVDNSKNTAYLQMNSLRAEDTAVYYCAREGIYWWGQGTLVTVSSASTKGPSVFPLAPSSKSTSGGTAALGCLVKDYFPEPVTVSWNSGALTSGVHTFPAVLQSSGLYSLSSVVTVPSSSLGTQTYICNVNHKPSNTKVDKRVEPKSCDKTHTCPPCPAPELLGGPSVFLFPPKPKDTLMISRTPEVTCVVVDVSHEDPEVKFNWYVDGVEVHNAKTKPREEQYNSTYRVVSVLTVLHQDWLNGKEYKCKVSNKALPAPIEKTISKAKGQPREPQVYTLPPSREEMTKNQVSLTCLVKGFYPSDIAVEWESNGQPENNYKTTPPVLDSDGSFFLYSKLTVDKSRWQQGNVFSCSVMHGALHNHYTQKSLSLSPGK
VL: DIQMTQSPSSLSASVGDRVTITCRSSQSLVHSNGNTFLHWYQQKPGKAPKLLIYTVSNRFSGVPSRFSGSGSGTDFTLTISSLQPEDFATYFCSQTTHVPWTFGQGTKVEIK
As for B3, in the test with human CD40, the “CD40 response” value is 0.336 µg/mL.

B4: IgG1-hDR5-01-G56T-E333A/P396L/E430G (antibody)
heavy: EVQLQQSGAEVVKPGASVKLSCKASGFNIKDTFIHWVKQAPGQGLEWIGRIDPANTNTKYDPKFQGKATITTDTSSNTAYMELSSLRSEDTAVYYCVRGLYTYYFDYWGQGTLVTVSSASTKGPSVFPLAPSSKSTSGGTAALGCLVKDYFPEPVTVSWNSGALTSGVHTFPAVLQSSGLYSLSSVVTVPSSSLGTQTYICNVNHKPSNTKVDKRVEPKSCDKTHTCPPCPAPELLGGPSVFLFPPKPKDTLMISRTPEVTCVVVDVSHEDPEVKFNWYVDGVEVHNAKTKPREEQYNSTYRVVSVLTVLHQDWLNGKEYKCKVSNKALPAPIAKTISKAKGQPREPQVYTLPPSREEMTKNQVSLTCLVKGFYPSDIAVEWESNGQPENNYKTTPLVLDSDGSFFLYSKLTVDKSRWQQGNVFSCSVMHGALHNHYTQKSLSLSPGK
light: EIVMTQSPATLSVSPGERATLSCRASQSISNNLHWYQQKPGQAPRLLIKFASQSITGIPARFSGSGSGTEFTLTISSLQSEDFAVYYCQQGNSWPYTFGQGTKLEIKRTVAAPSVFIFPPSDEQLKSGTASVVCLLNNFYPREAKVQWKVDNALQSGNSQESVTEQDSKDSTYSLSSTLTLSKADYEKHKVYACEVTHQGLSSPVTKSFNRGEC
notes: IgG1,kappa
As to B4, the concentration for a half-maximal effect (EC50) in the test with purified human C1q [1] stood at 1.9 µg/mL.

B5: IgG1-hDR5-01-G56T-K326A/E333A/E430G (antibody)
heavy: EVQLQQSGAEVVKPGASVKLSCKASGFNIKDTFIHWVKQAPGQGLEWIGRIDPANTNTKYDPKFQGKATITTDTSSNTAYMELSSLRSEDTAVYYCVRGLYTYYFDYWGQGTLVTVSSASTKGPSVFPLAPSSKSTSGGTAALGCLVKDYFPEPVTVSWNSGALTSGVHTFPAVLQSSGLYSLSSVVTVPSSSLGTQTYICNVNHKPSNTKVDKRVEPKSCDKTHTCPPCPAPELLGGPSVFLFPPKPKDTLMISRTPEVTCVVVDVSHEDPEVKFNWYVDGVEVHNAKTKPREEQYNSTYRVVSVLTVLHQDWLNGKEYKCKVSNAALPAPIAKTISKAKGQPREPQVYTLPPSREEMTKNQVSLTCLVKGFYPSDIAVEWESNGQPENNYKTTPPVLDSDGSFFLYSKLTVDKSRWQQGNVFSCSVMHGALHNHYTQKSLSLSPGK
light: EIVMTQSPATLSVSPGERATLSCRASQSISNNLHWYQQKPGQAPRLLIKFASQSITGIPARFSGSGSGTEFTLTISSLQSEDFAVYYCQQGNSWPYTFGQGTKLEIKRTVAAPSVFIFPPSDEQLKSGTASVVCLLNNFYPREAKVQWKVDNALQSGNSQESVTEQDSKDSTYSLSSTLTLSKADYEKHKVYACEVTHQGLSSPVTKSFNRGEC
notes: IgG1,kappa
B5 yielded an EC50 in the test with purified human C1q [2] of 0.8 µg/mL.

B6: IgG1-hDR5-01-G56T-K326A/P396L/E430G (antibody)
heavy: EVQLQQSGAEVVKPGASVKLSCKASGFNIKDTFIHWVKQAPGQGLEWIGRIDPANTNTKYDPKFQGKATITTDTSSNTAYMELSSLRSEDTAVYYCVRGLYTYYFDYWGQGTLVTVSSASTKGPSVFPLAPSSKSTSGGTAALGCLVKDYFPEPVTVSWNSGALTSGVHTFPAVLQSSGLYSLSSVVTVPSSSLGTQTYICNVNHKPSNTKVDKRVEPKSCDKTHTCPPCPAPELLGGPSVFLFPPKPKDTLMISRTPEVTCVVVDVSHEDPEVKFNWYVDGVEVHNAKTKPREEQYNSTYRVVSVLTVLHQDWLNGKEYKCKVSNAALPAPIEKTISKAKGQPREPQVYTLPPSREEMTKNQVSLTCLVKGFYPSDIAVEWESNGQPENNYKTTPLVLDSDGSFFLYSKLTVDKSRWQQGNVFSCSVMHGALHNHYTQKSLSLSPGK
light: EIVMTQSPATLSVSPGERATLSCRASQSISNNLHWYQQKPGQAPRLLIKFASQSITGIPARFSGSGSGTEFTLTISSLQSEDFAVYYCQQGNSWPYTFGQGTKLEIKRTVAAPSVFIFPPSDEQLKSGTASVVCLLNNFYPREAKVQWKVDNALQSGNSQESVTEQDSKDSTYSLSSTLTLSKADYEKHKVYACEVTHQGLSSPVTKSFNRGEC
notes: IgG1,kappa
Consider B6, for which it took 0.6 µg/mL to reach a half-maximal effect in the test with purified human C1q [2] (EC50).

B7: IgG1-hDR5-01-G56T-S267E/H268F/S324T/E430G (antibody)
heavy: EVQLQQSGAEVVKPGASVKLSCKASGFNIKDTFIHWVKQAPGQGLEWIGRIDPANTNTKYDPKFQGKATITTDTSSNTAYMELSSLRSEDTAVYYCVRGLYTYYFDYWGQGTLVTVSSASTKGPSVFPLAPSSKSTSGGTAALGCLVKDYFPEPVTVSWNSGALTSGVHTFPAVLQSSGLYSLSSVVTVPSSSLGTQTYICNVNHKPSNTKVDKRVEPKSCDKTHTCPPCPAPELLGGPSVFLFPPKPKDTLMISRTPEVTCVVVDVEFEDPEVKFNWYVDGVEVHNAKTKPREEQYNSTYRVVSVLTVLHQDWLNGKEYKCKVTNKALPAPIEKTISKAKGQPREPQVYTLPPSREEMTKNQVSLTCLVKGFYPSDIAVEWESNGQPENNYKTTPPVLDSDGSFFLYSKLTVDKSRWQQGNVFSCSVMHGALHNHYTQKSLSLSPGK
light: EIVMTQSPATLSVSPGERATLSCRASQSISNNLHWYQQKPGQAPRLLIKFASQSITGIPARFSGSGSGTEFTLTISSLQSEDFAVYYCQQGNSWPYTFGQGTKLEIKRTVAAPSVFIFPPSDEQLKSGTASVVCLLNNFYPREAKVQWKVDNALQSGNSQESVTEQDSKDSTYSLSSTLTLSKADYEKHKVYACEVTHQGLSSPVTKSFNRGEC
notes: IgG1,kappa
With B7, the EC50 with purified human C1q [3] stood at 0.5 µg/mL.

B8: IgG113F-hDR5-01-G56T-E430G (antibody)
heavy: EVQLQQSGAEVVKPGASVKLSCKASGFNIKDTFIHWVKQAPGQGLEWIGRIDPANTNTKYDPKFQGKATITTDTSSNTAYMELSSLRSEDTAVYYCVRGLYTYYFDYWGQGTLVTVSSASTKGPSVFPLAPSSKSTSGGTAALGCLVKDYFPEPVTVSWNSGALTSGVHTFPAVLQSSGLYSLSSVVTVPSSSLGTQTYICNVNHKPSNTKVDKRVEPKSCDKTHTCPPCPAPELLGGPSVFLFPPKPKDTLMISRTPEVTCVVVDVSHEDPEVQFKWYVDGVEVHNAKTKPREEQYNSTFRVVSVLTVLHQDWLNGKEYKCKVSNKALPAPIEKTISKTKGQPREPQVYTLPPSREEMTKNQVSLTCLVKGFYPSDIAVEWESSGQPENNYNTTPPMLDSDGSFFLYSKLTVDKSRWQQGNIFSCSVMHGALHNHYTQKSLSLSPGK
light: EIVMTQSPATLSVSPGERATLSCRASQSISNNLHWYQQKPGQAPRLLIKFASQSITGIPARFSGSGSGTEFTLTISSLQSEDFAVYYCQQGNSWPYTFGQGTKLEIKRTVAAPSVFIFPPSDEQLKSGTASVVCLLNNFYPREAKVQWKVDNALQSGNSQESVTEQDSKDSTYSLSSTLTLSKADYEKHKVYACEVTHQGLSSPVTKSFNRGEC
notes: also called IgG113F-E430G
As for B8, the half-maximal effective concentration (EC50) with purified human C1q [4] was 11.4 µg/mL.

B9: IgG1-hDR5-01-G56T-K326A/E333A/P396L/E430G (antibody)
heavy: EVQLQQSGAEVVKPGASVKLSCKASGFNIKDTFIHWVKQAPGQGLEWIGRIDPANTNTKYDPKFQGKATITTDTSSNTAYMELSSLRSEDTAVYYCVRGLYTYYFDYWGQGTLVTVSSASTKGPSVFPLAPSSKSTSGGTAALGCLVKDYFPEPVTVSWNSGALTSGVHTFPAVLQSSGLYSLSSVVTVPSSSLGTQTYICNVNHKPSNTKVDKRVEPKSCDKTHTCPPCPAPELLGGPSVFLFPPKPKDTLMISRTPEVTCVVVDVSHEDPEVKFNWYVDGVEVHNAKTKPREEQYNSTYRVVSVLTVLHQDWLNGKEYKCKVSNAALPAPIAKTISKAKGQPREPQVYTLPPSREEMTKNQVSLTCLVKGFYPSDIAVEWESNGQPENNYKTTPLVLDSDGSFFLYSKLTVDKSRWQQGNVFSCSVMHGALHNHYTQKSLSLSPGK
light: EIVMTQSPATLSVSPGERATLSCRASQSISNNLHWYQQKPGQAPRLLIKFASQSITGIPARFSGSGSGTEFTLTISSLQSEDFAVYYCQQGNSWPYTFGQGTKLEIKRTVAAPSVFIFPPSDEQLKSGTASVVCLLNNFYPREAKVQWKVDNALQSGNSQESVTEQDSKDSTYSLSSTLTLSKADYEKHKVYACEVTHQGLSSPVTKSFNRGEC
notes: IgG1,kappa
On to B9, for which the EC50 in the test with purified human C1q [5] was determined as 1.3 µg/mL.

B10: IgG1-CD40-CP870893 (antibody)
heavy: not shown
VL: DIQMTQSPSSVSASVGDRVTITCRASQGIYSWLAWYQQKPGKAPNLLIYTASTLQSGVPSRFSGSGSGTDFTLTISSLQPEDFATYYCQQANIFPLTFGGGTKVEIK
Regarding B10, in the test with human CD40, the “CD40 response” value is 0.187 µg/mL.

B11: IgG1-CD40-CP870893-K326W/E333S/E430G (antibody)
heavy: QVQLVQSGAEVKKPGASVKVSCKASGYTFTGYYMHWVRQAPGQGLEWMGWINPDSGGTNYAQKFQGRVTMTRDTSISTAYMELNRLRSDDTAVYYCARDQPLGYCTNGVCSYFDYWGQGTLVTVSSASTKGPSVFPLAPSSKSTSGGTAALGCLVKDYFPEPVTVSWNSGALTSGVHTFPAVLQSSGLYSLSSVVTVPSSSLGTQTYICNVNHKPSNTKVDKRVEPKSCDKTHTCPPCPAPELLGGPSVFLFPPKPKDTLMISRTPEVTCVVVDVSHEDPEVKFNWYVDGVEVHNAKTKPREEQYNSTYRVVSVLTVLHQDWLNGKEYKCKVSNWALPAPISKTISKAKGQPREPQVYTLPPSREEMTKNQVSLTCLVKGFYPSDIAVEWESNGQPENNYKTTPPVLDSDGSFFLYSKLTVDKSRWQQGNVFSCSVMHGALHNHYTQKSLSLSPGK
VL: DIQMTQSPSSVSASVGDRVTITCRASQGIYSWLAWYQQKPGKAPNLLIYTASTLQSGVPSRFSGSGSGTDFTLTISSLQPEDFATYYCQQANIFPLTFGGGTKVEIK
Regarding B11, in the test with human CD40, the “CD40 response” value came out at 0.0459 µg/mL.

B12: IgG1-BMS-663513-K326W/E333S/E430G (antibody, V domains shown)
VH: QVQLQQWGAGLLKPSETLSLTCAVYGGSFSGYYWSWIRQSPEKGLEWIGEINHGGYVTYNPSLESRVTISVDTSKNQFSLKLSSVTAADTAVYYCARDYGPGNYDWYFDLWGRGTLVTVSS
VL: EIVLTQSPATLSLSPGERATLSCRASQSVSSYLAWYQQKPGQAPRLLIYDASNRATGIPARFSGSGSGTDFTLTISSLEPEDFAVYYCQQRSNWPPALTFGGGTKVEIK
Consider B12, for which the “4-1BB signaling, luciferase reporter Jurkat cells, EC50” value with human 4-1BB worked out at 0.0329 µg/mL.
